Two molecules from PMC4610397 (Cellular and molecular bioengineering, 2015) can be followed below.

In series [1] the target is T1, Q11.
T1 peptide: Ac-QQKFQFQFEQQ-NH2
Kind of series: co-sedimentation.

Series [2] concerns the molecule itself. The experiment in a line: circular dichroism + transmission electron microscopy. On the technique in general: Circular dichroism is the unequal absorption of left and right circularly polarised light.

Ends that are not written are not given here. * marks the point of attachment. LacNAc = N-acetyllactosamine (disaccharide N-linked to the Asn side chain), CC(=O)N[C@@H]1[C@@H](O)[C@H](O[C@@H]2O[C@H](CO)[C@H](O)[C@H](O)[C@H]2O)[C@@H](CO)O[C@H]1*; βGlcNAc = CC(=O)N[C@@H]1[C@@H](O)[C@H](O)[C@@H](CO)O[C@H]1*

Take N(βGlcNAc)SGSGQQKFQFQFEQQ-NH2 [GlcNAc-Q11]: the binding result in series [1] and in series [2] was “binds” throughout.

As to N(LacNAc)SGSGQQKFQFQFEQQ-NH2 [LacNAc-Q11], the binding result in series [2] is recorded as “binds”.
